Series [1] has as its target SOD1bar mutant G41D (SOD1bar-G41D), FRET folding sensor. Kind of series: cell-based or functional assay.
Another series has as its target T1, FliC peptide E22 (P. aeruginosa).
T1 construct: 15-residue stretch of P. aeruginosa FliC, spot E22 of the FliC SPOT membrane, domain D2; source: synthetic peptide, SPOT membrane (cellulose)
T1 peptide: TGYVQLNSPTAYSVS
Kind of series: peptide or protein array; SPOT membrane of 159 synthetic 15-mer peptides (shift of 3) spanning FliC on cellulose; probed with purified recombinant DnaK (GST cleaved); bound DnaK detected with anti-DnaK antibody and alkaline phosphatase secondary antibody; intensity by ImageJ, background subtracted. The note with it: both partners purified.

Another series deals with T2, FliC peptide E21 (P. aeruginosa).
T2 construct: 15-residue stretch of P. aeruginosa FliC, spot E21 of the FliC SPOT membrane, domain D2; source: synthetic peptide, SPOT membrane (cellulose)
T2 peptide: TVVTGYVQLNSPTAY
The description is as above. Particulars: both partners purified.

The target in the next series is T3, FliC peptide D20 (P. aeruginosa).
T3 construct: 15-residue stretch of P. aeruginosa FliC, spot D20 of the FliC SPOT membrane, domain D2; source: synthetic peptide, SPOT membrane (cellulose)
T3 peptide: LADQLNSNSSKLGIT
Described as above. The note with it: both partners purified.

The target in a further series is T4, FliC peptide F19 (P. aeruginosa).
T4 construct: 15-residue stretch of P. aeruginosa FliC, spot F19 of the FliC SPOT membrane, domain D1; source: synthetic peptide, SPOT membrane (cellulose)
T4 peptide: QRADLGAVQNRFKNT
The series is described as above. Particulars: both partners purified.

The next series addresses T5, FliC peptide E20 (P. aeruginosa).
T5 construct: 15-residue stretch of P. aeruginosa FliC, spot E20 of the FliC SPOT membrane, domain D2; also called E20 (FliC membrane); source: synthetic peptide, SPOT membrane (cellulose)
T5 peptide: ATTTVVTGYVQLNSP
Described as above. Particulars: both partners purified.

For another series, the target named is T6, FliC peptide A16 (P. aeruginosa).
T6 construct: 15-residue stretch of P. aeruginosa FliC, spot A16 of the FliC SPOT membrane, domain D1; source: synthetic peptide, SPOT membrane (cellulose)
T6 peptide: AGLQISNRLSNQISG
The series is described as above. Particulars: both partners purified.

In a further series the target is T7, FliC peptide C20 (P. aeruginosa).
T7 construct: 15-residue stretch of P. aeruginosa FliC, spot C20 of the FliC SPOT membrane, domain D3; source: synthetic peptide, SPOT membrane (cellulose)
T7 peptide: VGGGQVKNIAIAAGD
The description is as above. Particulars: both partners purified.

A further series deals with T8, FliC peptide A9 (P. aeruginosa).
T8 construct: 15-residue stretch of P. aeruginosa FliC, spot A9 of the FliC SPOT membrane, domain D0; source: synthetic peptide, SPOT membrane (cellulose)
T8 peptide: LNTSLQRLTTGYRIN
The description is as above. Particulars: both partners purified.

The target of the next series is T9, FliC peptide F22 (P. aeruginosa).
T9 construct: 15-residue stretch of P. aeruginosa FliC, spot F22 of the FliC SPOT membrane, domain D1; source: synthetic peptide, SPOT membrane (cellulose)
T9 peptide: NRFKNTIDNLTNISE
The description is as above. Particulars: both partners purified.

In another series the target is T10, FliC peptide B18 (P. aeruginosa).
T10 construct: 15-residue stretch of P. aeruginosa FliC, spot B18 of the FliC SPOT membrane, domain D1; source: synthetic peptide, SPOT membrane (cellulose)
T10 peptide: TRISDTTTFGGRKLL
The series is described as above. Particulars: both partners purified.

In the next series the target is T11, FliC peptide D5 (P. aeruginosa).
T11 construct: 15-residue stretch of P. aeruginosa FliC, spot D5 of the FliC SPOT membrane, domain D3; source: synthetic peptide, SPOT membrane (cellulose)
T11 peptide: IPNLSARARTVFTAD
Described as above. Particulars: both partners purified.

The target in a further series is T12, FliC peptide A10 (P. aeruginosa).
T12 construct: 15-residue stretch of P. aeruginosa FliC, spot A10 of the FliC SPOT membrane, domain D0; source: synthetic peptide, SPOT membrane (cellulose)
T12 peptide: SLQRLTTGYRINSAK
Described as above. Particulars: both partners purified.

A further series deals with T13, DnaK peptide E20 (P. aeruginosa).
T13 construct: 15-residue stretch of P. aeruginosa DnaK, spot E20 of the DnaK SPOT membrane, domain NBD (ATPase); also called E20 (DnaK membrane); source: synthetic peptide, SPOT membrane (cellulose)
T13 peptide: VGGQTRMPLVQKTVA
Kind of series: peptide or protein array; SPOT membrane of 209 synthetic 15-mer peptides (shift of 3) spanning DnaK on cellulose; probed with purified recombinant FliC (GST cleaved); bound FliC detected with anti-FliC antibody and alkaline phosphatase secondary antibody; intensity by ImageJ, background subtracted. Particulars: both partners purified.

For a further series, the target named is T14, DnaK peptide E18 (P. aeruginosa).
T14 construct: 15-residue stretch of P. aeruginosa DnaK, spot E18 of the DnaK SPOT membrane, domain NBD (ATPase); source: synthetic peptide, SPOT membrane (cellulose)
T14 peptide: IHEVILVGGQTRMPL
The series is described as above. The note with it: both partners purified.

A further series concerns the target T15, DnaK peptide H14 (P. aeruginosa).
T15 construct: 15-residue stretch of P. aeruginosa DnaK, spot H14 of the DnaK SPOT membrane, domain SBD; source: synthetic peptide, SPOT membrane (cellulose)
T15 peptide: QGDALVHATRKMITE
Described as above. The note with it: both partners purified.

In another series the target is T16, DnaK peptide H13 (P. aeruginosa).
T16 construct: 15-residue stretch of P. aeruginosa DnaK, spot H13 of the DnaK SPOT membrane, domain SBD; source: synthetic peptide, SPOT membrane (cellulose)
T16 peptide: ARNQGDALVHATRKM
Described as above. The note with it: both partners purified.

B1: purified recombinant P. aeruginosa DnaK (natural protein)
chain: not shown
notes: DnaK of P. aeruginosa UCBPP-PA14, gene amplified with primers dnaKFw/Rv and cloned BamHI/XhoI into pGEX-6P-1; also called DnaK-GST (before cleavage); source: E. coli BL21(λDE3), pGEX-6P-1-dnaK, purified (Glutathione Sepharose 4B, eluted by prescission protease)
Turning to B1, in [1], the “decrease of the melting temperature (Tm) of SOD1bar-G41D with DnaK (20 μM), pH 7, fast relaxation imaging (FReI); not affected by ATP or AMP-PNP” value was approximately 10 K. Besides, in series [1], the “fold decrease of the maximal ΔD/A Initial of DnaK+SOD1bar-G41D at pH 6 when 2 mM ATP or AMP-PNP was added” value was approximately 1.7 fold. Further, the “fold increase of kobs of the ΔD/A Initial curve of DnaK+SOD1bar-G41D at pH 6 when 2 mM AMP-PNP was added” value in series [1] came to 2 fold. In series [1], the “fold increase of kobs of the ΔD/A Initial curve of DnaK+SOD1bar-G41D at pH 6 when 2 mM ATP was added” value was determined as 4 fold. Further, the “melting temperature (Tm) of SOD1bar-G41D when supplemented with DnaK, FReI” value in series [1] came out at 308 K. Besides, the “reduction of the folding rate (kf) of SOD1bar-G41D at 310 K with DnaK (20 μM), pH 7, FReI” value in [1] is approximately 3 fold. Further, the Intensity with FliC peptide E22 was 3.55 relative intensity; with FliC peptide E21 it was 2.87 relative intensity; with FliC peptide D20, 2.85 relative intensity; in the series with FliC peptide F19, 2.34 relative intensity; with FliC peptide E20 it was 2.36 relative intensity; in the series with FliC peptide A16, 4.17 relative intensity. For the same molecule, the Intensity with FliC peptide C20 amounted to 3.05 relative intensity; in the series with FliC peptide A9, 2.51 relative intensity; with FliC peptide F22, 2.3 relative intensity; with FliC peptide B18, 5.07 relative intensity; with FliC peptide D5, 2.22 relative intensity; with FliC peptide A10 it was 2.4 relative intensity.

B2: purified recombinant P. aeruginosa FliC (natural protein, UniProt A0A0H2Z7X1 1-488, looked up)
chain: MALTVNTNIASLNTQRNLNASSNDLNTSLQRLTTGYRINSAKDDAAGLQISNRLSNQISGLNVATRNANDGISLAQTAEGALQQSTNILQRIRDLALQSANGSNSDADRAALQKEVAAQQAELTRISDTTTFGGRKLLDGSFGTTSFQVGSNAYETIDISLQNASASAIGSYQVGSNGAGTVASVAGTATASGIASGTVNLVGGGQVKNIAIAAGDSAKAIAEKMDGAIPNLSARARTVFTADVSGVTGGSLNFDVTVGSNTVSLAGVTSTQDLADQLNSNSSKLGITASINDKGVLTITSATGENVKFGAQTGTATAGQVAVKVQGSDGKFEAAAKNVVAAGTAATTTVVTGYVQLNSPTAYSVSGTGTQASQVFGNASAAQKSSVASVDISTADGAQNAIAVVDNALAAIDAQRADLGAVQNRFKNTIDNLTNISENATNARSRIKDTDFAAETAALSKNQVLQQAGTAILAQANQLPQAVLSLLR
notes: FliC (flagellin type B) of P. aeruginosa UCBPP-PA14, gene amplified with primers fliCFw/Rv and cloned BamHI/XhoI into pGEX-6P-1; also called FliC-GST (before cleavage); source: E. coli BL21(λDE3), pGEX-6P-1-fliC, purified (Glutathione Sepharose 4B, eluted by prescission protease)
As for B2, the Intensity in the series with DnaK peptide E20 was 2.22 relative intensity; with DnaK peptide E18, 2.23 relative intensity; with DnaK peptide H14, 3.34 relative intensity; with DnaK peptide H13, 2.23 relative intensity.

Values taken from paper PMC11816700, “Multiple Chaperone DnaK–FliC Flagellin Interactions are Required for Pseudomonas aeruginosa Flagellum Assembly and Indicate a New Function for DnaK” (Microbial Biotechnology, 2025).
